Source: the DeepSol protein solubility set

assay: soluble on expression in E. coli; label from the status in PepcDB or PDB records

Sequence | soluble on expression in E. coli
MSLTLPELFTSVFSHFKGQPDKAPIARKINGAYSPISYDSLAEDCRHFAAYLKERGIEPGDRVAILSENRPGWYLADIAILSLGATDVPLYPSLPPNQIEYILNNCSAKGIIVSNMLQLGKILSIWPKLPELNMVIVMNKLDEPVEDVIDLSQAKTEGKKVLEAKPWLLDGIKSNPDDVATLIYTSGTTGLPKGVMLTHRNICENVKSCSTVIRIDQTDSSLSFLPLSHAYERTGGYYLMFACGARINLAESVETISLNISEAKPTIIFTVPRLFDRMKASILKSVTSEGGVKEKIFFWAVSTGEKYHKQLATGKVSPLLAVQHNLADKLVYSKIRKKFGGKLRYFVSGGAALPQKTGEFFQSIGITILEGFGLTETSPVTNVNRPEKVKFGTVGLPVKNVEVKIAPDGEIMLKGPNIMKGYWKDEAASAEVLRDGWLYTGDIGEVDSEGYLKITDRKKHIIVTSGGKNIAPLQIENLILDSPYVDQAMIVGEKRPFLIALIVPDFLKLRDFAAEHQIKASSTKELINTKEVIEVYEKLLKSISRQLATHEKVRKFLLLEEPFSIENGMMTPTLKLKRKEITTKFSAEIDNLYNTLNMVYNTEGHHHHHH | not soluble
MSLMKQIKHFNQNYQELRQLGKVAIGRRAGKLKAGTIILFAVDSQGKILAARKMQGVTVLAKFHPLPQYVNEDIHYMDHYHPLVQKENKLTQQAMENAREIYLRVELGNYQETQPLTPLNGAKIQWQLWKNKVQTKLKGSVEEGHHHHHH | not soluble
MQWRRCKVITRDFLMNADCKTAFGAIEESLLWSAEQRAASLAATLACRPDEGPVWIFGYGSLMWNPALEFTESCTGTLVGWHRAFCLRLTAGRGTAHQPGRMLALKEGGRTTGVAYRLPEETLEQELTLLWKREMITGCYLPTWCQLDLDDGRTVNAIVFIMDPRHPEYESDTRAQVIAPLIAAASGPLGTNAQYLFSLEQELIKLGMQDDGLNDLLVSVKKLLAENYPDGVLRPGFALEHHHHHH | not soluble
MVTAREVGRIGLRKLLQRIGIVAESMTPLATDPVEVTQLLDARWYDERLRALADELGRDPDSVRAEAAGYLREMAASLDERAVQAWRGFSRWLMRAYDVLVDEDQITQLRKLDRKATLAFAFSHRSYLDGMLLPEAILANRLSPALTFGGANLNFFPMGAWAKRTGAIFIRRQTKDIPVYRFVLRAYAAQLVQNHVNLTWSIEGGRTRTGKLRPPVFGILRYITDAVDEIDGPEVYLVPTSIVYDQLHEVEAMTTEAYGAVKRPEDLRFLVRLARQQGERLGRAYLDFGEPLPLRKRLQEMRADKSGTGSEIERIALDVEHRINRATPVTPTAVVSLALLGADRSLSISEVLATVRPLASYIAARNWAVAGAADLTNRSTIRWTLHQMVASGVVSVYDAGTEAVWGIGEDQHLVAAFYRNTAIHILVDRAVAELALLAAAETTTNGSVSPATVRDEALSLRDLLKFEFLFSGRAQFEKDLANEVLLIGSVVDTSKPAAAADVWRLLESADVLLAHLVLRPFLDAYHIVADRLAAHEDDSFDEEGFLAECLQVGKQWELQRNIASAESRSMELFKTALRLARHRELVDGADATDIAKRRQQFADEIATATRRVNTIAELARRQLEHHHHHH | not soluble
GPGSMSASGSGVAAIYGRAEEAQNAPVKLQPVPAFELYKAAREEELCSYRSLCRVLCMHSGGKLTKQQRRILEDMREELCLPTERAEAELAAAREDVLVTSVAASGVLKRRQDFFDGVTDVPLDTLSYAESAKDDNNSLYVAQTKVARTEQIVGGVHGRHAAPSKMSIREIHKNLERIGREVAATSSKLLYCTSVVDQQAYRNVLQQKREQLQAMLREVEDAPPDMSGIASVMPSEHVY | soluble
MVTAPPTDYFASFTTNDDALVLASVSSDAELELLNVWLRTHRREHPDSKVDVLQLPAADEPAPGDLARLVEELEADENRLVVPVRVFWVPGGLPTRLKVVALMSGRDTYRPPEILQRRILRKDPSRARVVAGEPAKVSELRKQWSETTVGENPRDFAHFVLRRAVLAIERVELRLLGPEYKSPRLVKPEMMASSRFREGLAKIPGATPEKAGEMLDELSTGWSRFSVDLIPSLGRAIFSRGFDPRIDYDRIEIEQMRHALEQHPAVLLFSHRSYLDGVIVPVAMQENRLPPVHTFAGINLSFGIMGPIFRHSGVIFLRRKLDDPLYKYVLRQYVGYLVEKRFNLNWSIEGTRSRTGKMLPPKLGLLAYVADAYLDGRSDDILLQPVSISFDQLHETAEYAEYARGGEKRPEGLSWLYNFVKAQGERNYGKIYVRFPEAVSMRQYLGEPHGPLVEDEAAKRLAMQKMAIEVAWRILRVTPVNATNLVSALLLTARGVALTLEQLHQALQDSLDYLEQKKTPVTNSAMRLRTLEGVRAAVDALSGGHPVTCVDTGREPVWRIAPENELEAAFYRNSLIHAFLETSLVELALAYAARTADAEGDPLQAFWTQVVRLRDLLKFDFYFADSAAFHQNVAEEMSWHADWEQQVRAGRDGIETLMRAKRPLLADAMLRPYFEAYTIVADVLRDAPAEIAEKDLTKLALGVGQQYVAQGRVRNNESVSALLFATARQVAADQGLLEHGPDLMEQRRAFRDELRGILRDLDTVDRYARELFAARERERRTKRDEAVLEHHHHHH | soluble
MAETTPKVKGHVVILPYPVQGHLNPMVQFAKRLVSKNVKVTIATTTYTASSITTPSLSVEPISDGFDFIPIGIPGFSVDTYSESFKLNGSETLTLLIEKFKSTDSPIDCLIYDSFLPWGLEVARSMELSAASFFTNNLTVCSVLRKFSNGDFPLPADPNSAPFRIRGLPSLSYDELPSFVGRHWLTHPEHGRVLLNQFPNHENADWLFVNGFEGLEETQDCENGESDAMKATLIGPMIPSAYLDDRMEDDKDYGASLLKPISKECMEWLETKQAQSVAFVSFGSFGILFEKQLAEVAIALQESDLNFLWVIKEAHIAKLPEGFVESTKDRALLVSWCNQLEVLAHESIGCFLTHCGWNSTLEGLSLGVPMVGVPQWSDQMNDAKFVEEVWKVGYRAKEEAGEVIVKSEELVRCLKGVMEGESSVKIRESSKKWKDLAVKAMSEGGSSDRSINEFIESLGK | soluble
MGSDKIHHHHHHMEIKEMVSLARKAQKEYQATHNQEAVDNICRAAAKVIYENAAILAREAVDETGMGVYEHKVAKNQGKSKGVWYNLHNKKSIGILNIDERTGMIEIAKPIGVVGAVTPTTNPIVTPMSNIIFALKTCNAIIIAPHPRSKKCSAHAVRLIKEAIAPFNVPEGMVQIIEEPSIEKTQELMGAVDVVVATGGMGMVKSAYSSGKPSFGVGAGNVQVIVDSNIDFEAAAEKIITGRAFDNGIICSGEQSIIYNEADKEAVFTAFRNHGAYFCDEAEGDRARAAIFENGAIAKDVVGQSVAFIAKKANINIPEGTRILVVEARGVGAEDVICKEKMCPVMCALSYKHFEEGVEIARTNLANEGNGHTCAIHSNNQAHIILAGSELTVSRIVVNAPSATTAGGHIQNGLAVTNTLGCGSWGNNSISENFTYKHLLNISRIAPLNSSIHIPDDKEIWEL | not soluble
MDNIVTQNIKFESEPNYYLRGYHLFDISPLNGLKCEITDEFETDKIHLKIKLDWDQQEIKKITGFIQLSYDGHQLKPIDSNFDKRGGICIMTVPKYINAYRWSFSFDLKLHRYPAKPPQISHDLNPQVRSYDTMFEPSRKHDAVLLIGEKKLHVNKAFLSYHSDYFCDLFAEKFDEKNGIPIENVTYENFGLLMSIIYPEAAFSNHQNAEVLLELGNRFKIPAVMRHVENQIIRDTKFPNERLIFLADKYELQKLLAMEIQKMESFDQAKKFKGSDDYSQLSDATKAKILDRLIELS | not soluble
MMQIDSIEIGGKVYQFFKSDLGNAPLLFIKGSKGYAMCGYLNMETSNKVGDIAVRVMGVKTLDDMLSAKVVEASQEAQKVGINPGDVLRNVIDKL | soluble
MSLKAQRYASVLTLDNLTGRLVVVGDIHGCLAQLQGMLRAVSFKQGSDTLVAVGDLVNKGPDSFGVVRLLKRLGAHSVLGNHDVKLLKLVKKIREKGPLNERDTKSSLAPFALTVPVDVEVYLSQLPHIIRIPAHNVIMTHGGLHPQRPLDCQYIDEVTTLRNLIEKEQKAGGVTLVATPETKDGGVPWASLWRGPETVVFGHDSRRGLQEQYRPLAIGLDSGCVYGGRLSAAVFPGGHIVSVSGWRREAKEGHHHHHH | soluble
MAHHHHHHMNLIHICLFIIVIKCYVNCIKKNNKHIAYDKFYKQGSNTIVGSGNGSGDLLFLNNININKNVERKKNILAHSEIGTVRNIDDINLLNHNKKNEISFTKCKQIATIGPASENFEQLEKLYLNGIDVFRLNFSHGLKSIKKYIINSIRILEKKYDTTIGILGDIQGPKIRIGEFEKNQINENDNNTFVELKEGDLFSFDLMNSLGNQNRVQLNYPELIKNAKAGQIILLDDGNLKMKILENNYDTSNIQNSYIKVQVLTGGKLYSKKGFCIPNMIMPIDVLSEKDIKDILFCINEEVDFLGYSFVQTEYDLIFLRNIINDYYESDFYNNIKRKDRINFDQNNLQMKTFDDENDFYIKEVNDYYNNYYLKNVQKYKQIYDVYKNQDLYINDNIQNHYNKNIVTNIGDDKNIIDEQHIHNNNNNNIDNIMKNYSNLYNINKDHNKIAIISKIEKPSAIKNIENIIKLSDGIMIARGDLGIETNLSNLPILQKKLINLCRIKYNKPVIVATQMMESMRFLPSPTRAEVTDVATALYDGSDCVMLSAETATGQYPILTVSTQNKIIKDVENDYYYYEYTQRKNDKLKMLDHKNNCCHENKDIQQINKYNHEYIQNNKYEQDIQNNISYFDKLIFSIRDISNNINLKSIILFSNEFNKIQKLSNLRTKAPIIVITENKYLARKLQLTWGIYPHLSKKQNLFNHDLFSLINYGCDVSKKEGFVNSPDEYSLVTFSKNINSANLLYLCQPCLTN | not soluble
MAHHHHHHMSDLRRVESLNADTFRRLNATSVVKSFWHTQLRAATAASRGAKDDSLATANEETPVATRKLRSAASSAEKSAGGLTDSTVYSSSSSSSNSRLSVSATLPGFPSPTETRRRLRAAALSAERHRAEESDEEKPDPVARTLFQNFLLQEYDALDSRPVLTVVLDLDETLVSNRDSGATGAILRPYCLHMLNALRHMQGLEVVLWTASTKETAAPVIRQLSQSGPVFDDVICRNSSWFTEPLHTKDLRLLGRDMSRVIIFDNSTACCKLNPRNAVIVDDFRGVRNTSDAALVNVYYIIERSFNGCCAGVSVLETLVKLAVEKQLCMPEVLHLPESWRHIPLREIAPLKVPPHGIFFRAHSTPLNDSIMQHWTV | soluble
MGSDKIHHHHHHAPRTPPATDAWSGFRQLFELDPHYAHFANFLITSHPRPVREAIASLRAQLDQHPARCVEWDTQSEWKHEAEVREWAGRYLEVKPRQIALTGSTTEGLGMIYGGLRLNPQQEILTTEHEHYSTRNILAYRSQRDGTQVRKLRLFDDPAKVSDDQVLSTIAAAIKPQTRVLGMTWVHSGSGVKLPVGQIGALVHEANRNRDENDRILYVIDGVHGFGVEDMRFADLQCDYFIAGTHKWMFGPRGTGIICAASTELKHLTPTFATFSENEDFATTMTPGGYHAFEHRWALGKAFELHLQHGKAAIQARIHGLNDYLKERLAQHRAIELVTPRSPNHSAGFTFFRVKGQDVEAIAAHLNSQRIVVDAVDRDVGPVVRTAPGLLNTEAEIDRLVDVLGQRLRA | not soluble
MAFKSDVIFEEIKERIATDKEMVKKVGTSFRMTIAGADGKTKVWTIDAKSDTPYVGDDSSRPVEIEINIKDSDFIAIAAGKMKPDQAFMQGKMKLKGNIAKAMKLRTILDPKMLKAKL | soluble
SEEGSNKREGYNDQKQQARAGCGKELAVEEMIAAVSERKKGCCPPPPPPHGAPATPARNRPQTQGRGAAAPVVGWPPIRSFRRNLASSSSSKHSPEPQNDNANAKVTLTCKKNPLVKINMDGIPIGRKIDLAAYNSYDGLSSAVKQLFHGFLQAQKDQTNAQIAQQGADDKIFYQLLDGSGEYTLVYEDSEGDRMLVGDVPWKVFVSTAKRLRVLRSSELSHTLIGATARV | soluble
